According to PMC4506495:
Changes are numbered by the printed parent chain. pKd: −log10 of the molar value.

How the values were obtained:
[1] = molecular target: Magnetospirillum gryphiswaldense MSR-1 ferric uptake regulator (Fur), wild type (Magnetospirillum gryphiswaldense MSR-1); assay: SEC; size-exclusion chromatography of apo-Fur in solution
[2] = molecular target: Magnetospirillum gryphiswaldense MSR-1 ferric uptake regulator (Fur), wild type (Magnetospirillum gryphiswaldense MSR-1); assay: AUC; analytical ultracentrifugation of apo-Fur in solution
[3] = molecular target: Magnetospirillum gryphiswaldense MSR-1 ferric uptake regulator (Fur), wild type (Magnetospirillum gryphiswaldense MSR-1); assay: crystal structure; apo-Fur without transition metal ions, 1.55 Å; crystals from (NH4)2SO4, 0.1 M sodium citrate pH 5.5
[4] = molecular target: Magnetospirillum gryphiswaldense MSR-1 Fur C9L/M14L/M16V-triple mutant (Magnetospirillum gryphiswaldense MSR-1); assay: crystal structure; holo-Fur with 1 mM MnCl2, 1.9 Å; 10% PEG3000, 0.1 M CHES pH 9.0
[5] = molecular target: Magnetospirillum gryphiswaldense MSR-1 Fur C9L/M14L/M16V-triple mutant (Magnetospirillum gryphiswaldense MSR-1); assay: crystal structure; Fur-Mn2+ with the 25-bp feoAB1 operator dsDNA (three base-pair mutations), 2.6 Å (SeMet form 2.82 Å)
[6] = molecular target: T1, MgFur E108A/H125A (metal site 2 mutant) E108A;H125A (Magnetospirillum gryphiswaldense MSR-1) (UniProt V6F4Q0); assay: SPR; conditions: 1 mM Mn2+, SPR: 20 mM Tris-HCl pH 8.0, 150 mM NaCl, 1 mM MnCl2, 0.005% Tween20, 25 C, EMSA: 40 mM HEPES pH 7.0, 125 mM NaCl, 2 mM FeSO4/MnCl2/EDTA, footprinting: …
T1 sequence: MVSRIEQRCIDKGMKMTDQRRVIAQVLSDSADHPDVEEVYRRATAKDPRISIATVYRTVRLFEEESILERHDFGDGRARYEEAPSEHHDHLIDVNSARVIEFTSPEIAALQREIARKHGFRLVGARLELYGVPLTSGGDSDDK

[7] = molecular target: T2, MgFur K15A K15A (Magnetospirillum gryphiswaldense MSR-1) (UniProt V6F4Q0); assay: SPR; conditions: 1 mM Mn2+, SPR: 20 mM Tris-HCl pH 8.0, 150 mM NaCl, 1 mM MnCl2, 0.005% Tween20, 25 C, EMSA: 40 mM HEPES pH 7.0, 125 mM NaCl, 2 mM FeSO4/MnCl2/EDTA, footprinting: …
T2 sequence: T1 sequence with K15A, A108E, A125H

[8] = molecular target: T3, MgFur WT (Magnetospirillum gryphiswaldense MSR-1) (UniProt V6F4Q0); assay: SPR; conditions: 1 mM Mn2+, SPR: 20 mM Tris-HCl pH 8.0, 150 mM NaCl, 1 mM MnCl2, 0.005% Tween20, 25 C, EMSA: 40 mM HEPES pH 7.0, 125 mM NaCl, 2 mM FeSO4/MnCl2/EDTA, footprinting: …
T3 sequence: T1 sequence with A108E, A125H

Magnetospirillum gryphiswaldense MSR-1 ferric uptake regulator (Fur), wild type (natural protein)
stoichiometry N [1]: 2 | stoichiometry N [2]: 2 | stoichiometry N [3]: 2

Magnetospirillum gryphiswaldense MSR-1 Fur C9L/M14L/M16V-triple mutant (natural protein)
stoichiometry N [4]: 2 | stoichiometry N [5]: 2

TTAATCGCAACTCATTCGCAATTGC (double strand) [feoAB1 operator (SPR)]
pKd [6]: 6.57 | pKd [7]: 6.01 | pKd [8]: 7.07
